Test results reported in patent US20250361277A1, “PROTEASE-RESPONSIVE SURFACE-POTENTIAL-TUNABLE PEPTIDE CONSTRUCTS FOR SELECTIVE IMAGING AND ACCURATE INHIBITOR SCREENING” (The Regents of the University of California, priority 2024, published 2025).

Assays:
[1] = system: plasmid transfected HEK 293T cells; type: cell-based
Recombinant Mpro = Recombinant Mpro (Severe acute respiratory syndrome coronavirus 2, UniProt P0DTD1)
[2] = system: SARS-CoV-2 infected TMPRSS2-Vero cells; type: cell-based, SARS-CoV-2 (USA-WA1/2020)
[3] = system: noninfected TMPRSS2-Vero cells
[4] = biological target: Recombinant SARS-CoV-2 Mpro (Severe acute respiratory syndrome coronavirus 2, UniProt P0DTD1); conditions: pH 8
HEK 293T cells = conditions: HEK 293T cells, 48 h
[5] = system: Mpro plasmid-transfected HEK 293T cells
[6] = DLS hydrodynamic size and zeta potential of PSGMR without and with Mpro; type: physicochemical
Protocol: To validate the enzyme digestion efficiency, PSGMR was incubated with different concentrations of Mpro. […] No increase in fluorescence was detected in the presence of the GC376, thus showing that the fluorescence increase was due to Mpro-mediated peptide cleavage. […] PSGMR was also treated under identical conditions with several commercial proteins to investigate probe specificity: papain-like protease, thrombin, bovine serum albumin, and hemoglobin. […] Dynamic light scattering (DLS) tests and transmission electron microscopy (TEM) of PSGMR were performed to de-termine the change of particle size and surface potential distribution after incubation with Mpro. The average hydro-dynamic size of PSGMR increased from 142 nm to 396 nm (FIG. 1h), and the mean zeta potential value decreased from 23.97 mV to 12.46 mV (FIG. 1i). […] This aggregation was confirmed by TEM (FIG. 1j). The 20 mM Tri-HCl buffer can lead to a uniform nanoparticle (˜78 nm) (Figure S18), and β-sheet structure of PSGMR was observed after incubation with Mpro or at high concentrations (Figures S19-S22).
The 1H and 13C NMR spectra were measured on a BRUKER ARX 300™ NMR spectrometer using chloroform-d (CDCl3-d) or dimethyl sulfoxide-d6 (DMSO-d6) as solvent and tetramethylsilane (TMS) as internal reference. Splitting patterns are reported as s (single), d (doublet), t (triplet), and m (multiplet). Peptides were synthesized using an AAPPTec ECLIPSE™ system through standard solid phase Fmoc syntheses on rink-amide resin. Electrospray ionization mass spectrometry (ESI-MS) data was acquired by using a MICROMASS QUATTRO ULTIMA™ mass spectrometer. High resolution mass spectra (HRMS) were recorded on a BRUKER MICROTOF II™ mass spectrometer system. High performance liquid chromatography (HPLC) was performed by using a SHIMADZU™ LC-40 HPLC system under the wavelength of 195 nm, 254 nm, and 405 nm. The sample was dissolved in water or acetonitrile, applied on a ZORBAX 300 BS™ C18 column (5 um, 9.4×250 mm) from Agilent, and eluted at 1.5 mL/min with a 40 min gradient from 10% to 95% solvent B where solvent A is water (0.05% TFA solution) and solvent B is acetonitrile (0.05% TFA solution). All products were purified by HPLC to reach a purity of 90%. UV-Vis absorption and fluorescence spectra were performed on a SYNERGY H1™ microplate reader (BioTek). Confocal laser scanning microscopy images were obtained on a Zeiss LSM880 confocal laser scanning microscope (Zeiss). Dynamic light scattering (DLS) measurements were performed on a NANO-ZS90 ZETASIZER™ (Malvern) to determine hydrodynamic sizes and zeta potential values of the nanosystems studied. Transmission electron microscopy (TEM) images were acquired using an FEI TECNAI F20™ instrument at an operation voltage of 200 kV.

Substance: (Pra)KLVFFGGGSAVLQ/SGFRKMAGGGRRRRRR [PSGMR]
- fluorescence of FLIPGFP, PSGMR [1]: weak green and yellow fluo-rescence
- fluorescence of FLIPGFP, PSGMR and PI [1]: Strong green, yellow and red fluorescence
- green, red and yellow fluorescence intensities with incubation time [1]: markedly enhanced with the longer incubation time
- aggregation and fluorescence on incubation with Mpro (time-dependent spectra) (Recombinant Mpro): can aggregate easily with strong fluorescence
- fluorescence intensity with different concentrations of Mpro (Recombinant Mpro): gradually enhanced with in-creasing Mpro concentration
- probe specificity: fluorescence intensity with different proteins (Recombinant Mpro): clearly enhanced selectively with Mpro
- time to fluorescence plateau at 590 nm (Recombinant Mpro): ≤ 20 min
- killing / inhibition of infected cells [2]: can selectively kill SARS-CoV-2-infected cells
- yellow (probe) and red (PI) fluorescence in infected cells [2]: strong yellow and red fluorescence
- yellow and red fluorescence of infected cells ([2]; 10 μM probe): significantly enhanced
- average red fluorescence intensity of infected cells, higher than with PMR ([2]; PI channel): 600%
- red and yellow fluorescence and cell morphology of infected cells ([2]; PSGMR versus PMR): bright red and yellow fluorescence with obvious cell mor-phologic dilatation
- average yellow fluorescence intensity of infected cells, higher than with PMR ([2]; probe channel): 569%
- red and yellow fluorescence and cell morphology of noninfected cells [3]: weak red and yellow fluorescence with normal cell morphology
- cleavage by Mpro [4]: can be cleaved by Mpro between Q and S
- high concentration that caused significant cytotoxicity (HEK 293T cells): 40 µM
- cell viability after incubation with probe ([5]; Mpro plasmid-transfected cells): decreased
- cytotoxicity (metabolic activity) ([5]; Mpro plasmid, higher concentration of 10 μM, 48 h): obviously cytotoxic
- average hydrodynamic size ([6]; after incubation with Mpro): 396 nm
- mean zeta potential value ([6]; after incubation with Mpro): 12.46 mV
- average hydrodynamic size ([6]; before incubation with Mpro): 142 nm
- mean zeta potential value ([6]; before incubation with Mpro): 23.97 mV
